Target: Venus-Gβ2γ7 (Venus 156-239-Gβ2 with Venus 1-155-Gγ7), P62879-1;O60262
Experiment: BRET (suppression of GRK3ct-Gβ2γ7 BRET by competing Gαolf)
Settings: chain shown with the change; HEK293T/17 cells; parent: est. 100; read off a plot

- percent of parent: 29%
B1: G protein α subunit Gαolf, wild type, P38405 P102_V104del (protein)
chain: MGCLGGNSKTTEDQGVDEKERREANKKIEKQLQKERLAYKATHRLLLLGAGESGKSTIVKQMRILHVNGFNPEEKKQKILDIRKNVKDAIVTIVSAMSTIIPLANPENQFRSDYIKSIAPITDFEYSQEFFDHVKKLWDDEGVKACFERSNEYQLIDCAQYFLERIDSVSLVDYTPTDQDLLRCRVLTSGIFETRFQVDKVNFHMFDVGGQRDERRKWIQCFNDVTAIIYVAACSSYNMVIREDNNTNRLRESLDLFESIWNNRWLRTISIILFLNKQDMLAEKVLAGKSKIEDYFPEYANYTVPEDATPDAGEDPKVTRAKFFIRDLFLRISTATGDGKHYCYPHFTCAVDTENIRRVFNDCRDIIQRMHLKQYELL
